Where no end group is shown, it is not given here.

The target of one experiment is T1, XPA 210 peptide (human, immobilized on streptavidin coated plate (biotinylated) in the Pepscan).
T1 construct: also called 31-mer; 31-mer peptide
T1 peptide: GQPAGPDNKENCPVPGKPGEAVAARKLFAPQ
In words: Pepscan ELISA, peptide on streptavidin plate. The protocol:
(§1) In order to determine the amino acid region to which the selected monoclonal antibodies bind a Pepscan analysis with biotinylated 10 amino acid target peptides was carried out. The procedure is based on synthesis of a set of 14 ten-mer amino acid peptides representing the region from 193 to 226 of the TK1 sequence as shown in connection with Example 1. Each peptide has an eight amino acids overlap and two amino acids gaps, leading to a set of 14 different peptides, see Table 2. The entire full-length peptide is also included and all these peptides were immobilized on a streptavidine coated microtiter plate. After a 1 hour adsorption step the plates were washed with PBS, 1% BSA and 0.1% Tween 20. The different antibodies were then added at approximately 5 μg/ml and the plates were incubated for 1 hour, followed by washing three times. Then a HRP conjugate was added and incubated for 1 hour. The plates were then washed six times with the same buffer. Finally the absorbance was determined with 100 μl 3,3′,5,5′-tetramethylbenzidine (TMB) substrate and the results from one test with a series of antibodies are shown in Table 2.

The target in experiment [1] is T2, ASGQPAGPDN (human, also: biotinylated, position not given here).
T2 peptide: ASGQPAGPDN
In words: Pepscan ELISA, peptide on streptavidin plate. The protocol:
as §1

The target of experiment [2] is T3, GQPAGPDNKE (human, also: biotinylated).
T3 peptide: GQPAGPDNKE
As to the kind of experiment: Pepscan ELISA, peptide on streptavidin plate. The method, then:
as §1

For experiment [3], the target named is T4, PAGPDNKENC (human, also: biotinylated).
T4 peptide: PAGPDNKENC
As to the kind of experiment: Pepscan ELISA, peptide on streptavidin plate. The method, then: as §1

Experiment [4] concerns the target T5, GPDNKENCPV (human, also: biotinylated).
T5 peptide: GPDNKENCPV
In words: Pepscan ELISA, peptide on streptavidin plate. The protocol:
as §1

For experiment [5], the target named is T6, DNKENCPVPG (human, also: biotinylated).
T6 peptide: DNKENCPVPG
As to the kind of experiment: Pepscan ELISA, peptide on streptavidin plate. The method, then: as §1

The target in experiment [6] is T7, KENCPVPGKP (human, also: biotinylated).
T7 peptide: KENCPVPGKP
In words: Pepscan ELISA, peptide on streptavidin plate. The protocol: as §1

Experiment [7] deals with T8, NCPVPGKPGE (human, also: biotinylated).
T8 construct: also called peptide 7
T8 peptide: NCPVPGKPGE
As to the kind of experiment: Pepscan ELISA, peptide on streptavidin plate. The protocol: as §1

Experiment [8] deals with T9, PVPGKPGEAV (human, also: biotinylated).
T9 construct: also called peptide 8
T9 peptide: PVPGKPGEAV
In words: Pepscan ELISA, peptide on streptavidin plate. The protocol:
as §1

In experiment [9] the target is T10, PGKPGEAVAA (human, also: biotinylated).
T10 peptide: PGKPGEAVAA
As to the kind of experiment: Pepscan ELISA, peptide on streptavidin plate. The protocol:
as §1

The target of experiment [10] is T11, KPGEAVAARK (human, also: biotinylated).
T11 peptide: KPGEAVAARK
As to the kind of experiment: Pepscan ELISA, peptide on streptavidin plate. The protocol:
as §1

For experiment [11], the target named is T12, GEAVAARKLF (human, also: biotinylated).
T12 construct: also called 10-mer; 10-mer peptide
T12 peptide: GEAVAARKLF
As to the kind of experiment: Pepscan ELISA, peptide on streptavidin plate. The method, then:
as §1

Experiment [12] deals with T13, AVAARKLFAP (human, also: biotinylated).
T13 peptide: AVAARKLFAP
As to the kind of experiment: Pepscan ELISA, peptide on streptavidin plate. The method, then:
as §1

Experiment [13] concerns the target T14, AARKLFAPQQ (human, also: biotinylated, position not given here).
T14 peptide: AARKLFAPQQ
As to the kind of experiment: Pepscan ELISA, peptide on streptavidin plate. The protocol:
as §1

Experiment [14] concerns the target T15, ARKLFAPQQI (human, also: biotinylated, position not given here).
T15 peptide: ARKLFAPQQI
In words: Pepscan ELISA, peptide on streptavidin plate. The protocol: as §1

In experiment [15] the target is T16, human recombinant TK1 (human, UniProt P04183 1-234, limits assumed).
T16 construct: also called human rTK1; rTK1
T16 sequence (looked up): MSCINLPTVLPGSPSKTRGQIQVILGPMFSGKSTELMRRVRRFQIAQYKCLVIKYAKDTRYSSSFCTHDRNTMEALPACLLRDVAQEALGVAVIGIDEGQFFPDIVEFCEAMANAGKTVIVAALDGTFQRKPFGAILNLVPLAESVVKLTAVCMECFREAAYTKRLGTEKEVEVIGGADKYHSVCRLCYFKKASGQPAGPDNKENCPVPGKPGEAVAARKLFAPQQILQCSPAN
As to the kind of experiment: Attana 200 quartz crystal microbalance biosensor, antibody captured by anti-mouse IgG, rTK1 injected, 1:1 model. The protocol: (§2) In the experiment shown in FIGS. 8A and 8B an LNB Carboxyl sensor chip was used, which was pre-reacted with the Mouse IgG capture kit (Biacore, GE Healthcare) with the amine coupling procedure. The ligands were XPA 210-Ar1 and XPA 210-Ar2 and they were captured to the surface with anti-mouse antibodies by two injections of 50 μg/ml antibody solutions in a 10 mM acetate buffer pH 4.5. An identically treated chip without the capture antibody was used a negative control. Pure recombinant TK1, diluted to 20 μg/ml in 10 mM HEPES, 150 mM NaCl, 0.005% Tween 20, pH 7.4, was injected over the surface at 25 μl/min. The association time was 84 s and the dissociation was measured for another 300 s. Buffer without recombinant TK1 was injected as a blank and subtracted from the sample injection signals.
(§3) An 1:1 binding model was used for calculation of the kinetic constants from the fitted curves of the double reference data as shown in FIGS. 8A and 8B.

The target of experiment [16] is T16, human recombinant TK1. As to the kind of experiment: Attana quartz crystal microbalance, antibody captured by anti-mouse IgG on the chip, recombinant TK1 injected at 20 to 1.25 ug/ml, 1:1 binding model. The protocol: as §2, §3
For experiment [17], the target named is T2, ASGQPAGPDN
As to the kind of experiment: Pepscan ELISA. The method, then:
as §1

In experiment [18] the target is T3, GQPAGPDNKE
In words: Pepscan ELISA. The method, then:
as §1

In experiment [19] the target is T4, PAGPDNKENC
In words: Pepscan ELISA. The method, then: as §1

Experiment [20] has as its target T5, GPDNKENCPV
In words: Pepscan ELISA. The protocol: as §1

Experiment [21] concerns the target T6, DNKENCPVPG
As to the kind of experiment: Pepscan ELISA. The method, then:
as §1

Experiment [22] deals with T7, KENCPVPGKP
In words: Pepscan ELISA. The method, then: as §1

The target in experiment [23] is T8, NCPVPGKPGE
As to the kind of experiment: Pepscan ELISA. The method, then:
as §1

Experiment [24] addresses T9, PVPGKPGEAV
As to the kind of experiment: Pepscan ELISA. The method, then: as §1

Experiment [25] has as its target T10, PGKPGEAVAA
In words: Pepscan ELISA. The method, then:
as §1

Experiment [26] has as its target T11, KPGEAVAARK
In words: Pepscan ELISA. The protocol: as §1

The target of experiment [27] is T12, GEAVAARKLF
As to the kind of experiment: Pepscan ELISA. The protocol:
as §1

The target in experiment [28] is T13, AVAARKLFAP
As to the kind of experiment: Pepscan ELISA. The protocol:
as §1

Experiment [29] addresses T14, AARKLFAPQQ
As to the kind of experiment: Pepscan ELISA. The protocol:
as §1

Experiment [30] has as its target T15, ARKLFAPQQI
In words: Pepscan ELISA. The method, then:
as §1

B1: XPA 210-Ar1 (antibody, V domains shown)
VH: QVQLQQSGAELVRPGASMKLSCKALGYTLTDYEMHWVKQTPAHGLEWIGAIHPGYGGTAYNQKFKGKATLTADKSSSTAYMELSSLTSEDSAVYYCTTFITKFDYWGQGTTLTVSS
VL: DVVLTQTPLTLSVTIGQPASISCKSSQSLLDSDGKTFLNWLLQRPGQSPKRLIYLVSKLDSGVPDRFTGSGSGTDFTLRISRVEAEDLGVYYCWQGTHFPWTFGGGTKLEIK
notes: Mouse monoclonal from hybridoma; also called monoclonal antibody XPA 210-Ar1
B1: the “absorbance at 415 nm” value with XPA 210 peptide is 3.84 absorbance; in the experiment with ASGQPAGPDN [1], 0.113 absorbance; with GQPAGPDNKE [2], 0.108 absorbance; in the experiment with PAGPDNKENC [3], 0.12 absorbance; with GPDNKENCPV [4], 0.112 absorbance; with DNKENCPVPG [5], 0.108 absorbance. Further, the “absorbance at 415 nm” value with KENCPVPGKP [6] was 0.109 absorbance; with NCPVPGKPGE [7] it was 0.114 absorbance; with PVPGKPGEAV [8] it was 0.115 absorbance; in the experiment with PGKPGEAVAA [9] it was 0.112 absorbance; with KPGEAVAARK [10], 0.116 absorbance; with GEAVAARKLF [11] it was 3.51 absorbance. Besides, the “absorbance at 415 nm” value with AVAARKLFAP [12] turned out to be 0.125 absorbance; with AARKLFAPQQ [13], 0.137 absorbance; in the experiment with ARKLFAPQQI [14], 0.13 absorbance. Also, in the experiment with human recombinant TK1 [15], the Kd turned out to be 0.65 nM. Besides, the koff with human recombinant TK1 [16] is 1.61e-05 s⁻¹. Besides, the association rate constant (kon) with human recombinant TK1 [16] turned out to be 24800 M⁻¹ s⁻¹.

B2: XPA 210-Ar2 (antibody, V domains shown)
VH: QVQLQQSGAELVRPGASVKLSCKALGYTFTDYEMHWVRQTPVHGLEWIGAILPGSGGTAYNQKFKGKATLTADKSSSTAYMELSSLTSEDSAVYYCTTLITTFDYWGQGTTLTVSS
VL: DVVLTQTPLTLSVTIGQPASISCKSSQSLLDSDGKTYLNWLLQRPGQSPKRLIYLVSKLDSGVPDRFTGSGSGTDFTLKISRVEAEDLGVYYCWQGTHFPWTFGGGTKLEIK
notes: Mouse monoclonal from hybridoma; also called Sup-162; XPA-Ar2
In the case of B2, the binding result in the experiment with ASGQPAGPDN [17], with GQPAGPDNKE [18], in the experiment with PAGPDNKENC [19], with GPDNKENCPV [20], with DNKENCPVPG [21] and in the experiment with KENCPVPGKP [22] was “no binding (tested: approximately 5 µg/ml)” each time. The binding result with NCPVPGKPGE [23], with PVPGKPGEAV [24], with PGKPGEAVAA [25], in the experiment with KPGEAVAARK [26], with GEAVAARKLF [27] and with AVAARKLFAP [28] was “no binding (tested: approximately 5 µg/ml)” in each case. Moreover, the binding result in the experiment with AARKLFAPQQ [29] and with ARKLFAPQQI [30] was “no binding (tested: approximately 5 µg/ml)” each time. Besides, the “absorbance at 415 nm” value with XPA 210 peptide worked out at 3.79 absorbance; in the experiment with ASGQPAGPDN [1], 0.067 absorbance; with GQPAGPDNKE [2] it was 0.064 absorbance; in the experiment with PAGPDNKENC [3], 0.063 absorbance; with GPDNKENCPV [4], 0.063 absorbance; with DNKENCPVPG [5], 0.063 absorbance. In addition, the “absorbance at 415 nm” value is 0.063 absorbance with KENCPVPGKP [6]; 0.064 absorbance with NCPVPGKPGE [7]; 0.067 absorbance in the experiment with PVPGKPGEAV [8]; 0.067 absorbance with PGKPGEAVAA [9]; 0.072 absorbance with KPGEAVAARK [10]; 0.072 absorbance with GEAVAARKLF [11]. Further, the “absorbance at 415 nm” value with AVAARKLFAP [12] is 0.077 absorbance; in the experiment with AARKLFAPQQ [13], 0.066 absorbance; with ARKLFAPQQI [14] it was 0.063 absorbance.

B3: XPA 210-Ar3 (antibody, V domains shown)
VH: DVQLQESGPDLVKPSQSLSLTCTVTGYSITSGYSWHWIRQFPGNKLEWLGYIHYSGSTTYNPSLKGRISITRDTSKNQFFLQLNSVTTEDTATYYCARWGTGHWYFDVWAAGTTVTVSS
VL: QAVVTQESALTTSPGKTVTLTCRSSTGAVTTTNYANWVQEKPDHLFTGLIGGTNNRVPGVPARFSGSLIGDKAALTITGAQTEDEAIYFCALWYSNHWVFGGGTKLTVL
notes: Mouse monoclonal from hybridoma; also called Sup-165
Turning to B3, the “absorbance at 415 nm” value with XPA 210 peptide is 0.136 absorbance; with ASGQPAGPDN [1], 0.057 absorbance; with GQPAGPDNKE [2], 0.057 absorbance; with PAGPDNKENC [3] it was 0.055 absorbance; with GPDNKENCPV [4] it was 0.06 absorbance; with DNKENCPVPG [5], 0.059 absorbance. Further, the “absorbance at 415 nm” value came out at 0.058 absorbance with KENCPVPGKP [6]; 1.99 absorbance with NCPVPGKPGE [7]; 1.84 absorbance with PVPGKPGEAV [8]; 0.059 absorbance with PGKPGEAVAA [9]; 0.059 absorbance in the experiment with KPGEAVAARK [10]; 0.057 absorbance with GEAVAARKLF [11]. Moreover, the “absorbance at 415 nm” value amounted to 0.062 absorbance in the experiment with AVAARKLFAP [12], 0.06 absorbance with AARKLFAPQQ [13] and 0.062 absorbance with ARKLFAPQQI [14].

Source of the values: US20190002587A1 (AROCELL, published 2019).
